Results: article PMC9117268, “HDLBP binds ER-targeted mRNAs by multivalent interactions to promote protein synthesis of transmembrane and secreted proteins”

Columns and labels:
[1] = target: T1, HDLBP full-length (FL), Vigilin (Homo sapiens, UniProt Q00341 1-1268); assay: fluorescence anisotropy; 20 mM Tris pH 7.5, 60 mM KCl, 1 mM EDTA, 10% glycerol, 1 ng/ul tRNA, 1 ng/ul heparin, 0.4 U/ul RNasin, 200 ng/ul BSA; 10 nM RNA probe; 20 min on ice; details: protein: recombinant; purification section says GST removed by TEV; label: 5' fluorescein
[2] = target: T1, HDLBP full-length (FL), Vigilin; assay: as above; details: protein: recombinant; purification section says GST removed by TEV; label: 5' fluorescein; remark: listed apart in the source

T1 sequence (Q00341 whole entry): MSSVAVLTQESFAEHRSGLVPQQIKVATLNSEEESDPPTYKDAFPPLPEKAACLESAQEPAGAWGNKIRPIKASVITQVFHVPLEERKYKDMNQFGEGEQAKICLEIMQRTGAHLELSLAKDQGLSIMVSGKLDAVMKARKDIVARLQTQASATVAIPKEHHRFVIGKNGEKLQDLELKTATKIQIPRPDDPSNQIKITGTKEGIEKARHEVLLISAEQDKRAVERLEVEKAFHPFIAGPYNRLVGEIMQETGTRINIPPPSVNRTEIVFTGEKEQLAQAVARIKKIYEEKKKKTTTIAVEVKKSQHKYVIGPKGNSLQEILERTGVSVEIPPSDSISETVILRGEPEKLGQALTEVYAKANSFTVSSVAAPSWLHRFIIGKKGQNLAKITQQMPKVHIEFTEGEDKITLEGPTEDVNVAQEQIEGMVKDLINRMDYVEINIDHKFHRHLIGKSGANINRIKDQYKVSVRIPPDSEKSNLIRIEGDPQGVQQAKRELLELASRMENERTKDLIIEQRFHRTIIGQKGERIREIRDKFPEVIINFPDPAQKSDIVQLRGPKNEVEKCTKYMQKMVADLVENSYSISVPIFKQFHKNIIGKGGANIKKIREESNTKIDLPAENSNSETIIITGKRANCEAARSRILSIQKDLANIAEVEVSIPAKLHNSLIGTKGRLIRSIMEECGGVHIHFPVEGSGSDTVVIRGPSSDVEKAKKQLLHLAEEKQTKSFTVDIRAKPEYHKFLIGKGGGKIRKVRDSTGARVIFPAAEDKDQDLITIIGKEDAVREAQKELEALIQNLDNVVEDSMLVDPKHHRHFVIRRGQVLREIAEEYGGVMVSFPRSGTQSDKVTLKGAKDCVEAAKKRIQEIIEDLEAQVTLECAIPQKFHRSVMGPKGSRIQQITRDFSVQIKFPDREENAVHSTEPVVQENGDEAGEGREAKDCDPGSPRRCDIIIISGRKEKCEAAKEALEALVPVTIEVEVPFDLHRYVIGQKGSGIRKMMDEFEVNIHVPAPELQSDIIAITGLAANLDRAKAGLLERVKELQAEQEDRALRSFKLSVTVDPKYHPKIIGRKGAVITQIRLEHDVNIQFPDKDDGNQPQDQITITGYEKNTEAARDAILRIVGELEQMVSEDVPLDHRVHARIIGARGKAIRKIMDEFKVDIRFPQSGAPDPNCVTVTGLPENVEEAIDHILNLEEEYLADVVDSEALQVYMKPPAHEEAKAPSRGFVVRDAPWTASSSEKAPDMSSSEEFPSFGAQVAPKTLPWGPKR

Binder	binding signal [1]	binding result [2]
CAACAACAACAACAACAACAACAACAACAACAA (ssRNA) [CAA_oligomer]	~10 fold lower affinity than CCU/CUU oligomers	
AUUCCCUUCCUUCAAUCACACUCAGUUUCCACC (ssRNA) [TFRC_1]		binds
CACAGCUCUCCUAUUGAAACUUGCCCAGAUGUU (ssRNA) [TFRC_2]		binds
